Changes are numbered by the printed parent chain. Like-named read-outs stand apart in the source and are kept apart here. Blank lines part the entries; values can stand above or below the binder they belong to.
What was measured:
[1] = biological target: T1, mouse PDL1-Fc (R & D Systems) (mouse, UniProt Q9EP73 19-238); experiment: ELISA
[2] = biological target: T2, human PDL1-Fc (R & D Systems) (human, UniProt Q9NZQ7 19-239); experiment: ELISA
[3] = biological target: T3, cynomolgus monkey (cyno) PDL1-Fc (Sino biological) (cynomolgus monkey, UniProt G7PSE7 19-239); experiment: ELISA
T3 sequence (G7PSE7 entry or part of it): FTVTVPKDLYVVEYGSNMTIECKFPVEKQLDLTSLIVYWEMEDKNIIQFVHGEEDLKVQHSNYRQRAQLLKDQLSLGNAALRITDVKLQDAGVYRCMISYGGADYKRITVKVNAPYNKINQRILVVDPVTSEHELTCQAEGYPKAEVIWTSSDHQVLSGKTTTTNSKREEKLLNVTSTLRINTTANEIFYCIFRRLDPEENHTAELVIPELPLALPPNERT

human PDL1 (R&D Systems) [4] = biological target: T4, human PDL1 (R&D Systems) (human, UniProt Q9NZQ7 19-239); experiment: ELISA blocking of human PD-1 binding to PDL1; hPD-1 blockade
T4 sequence (Q9NZQ7 19-239): as the sequence (G7PSE7 entry or part of it) above, with T33A, S34A, N62S, Q68R, R82Q, L173F, A185T, I192T, L215H counted along it

human PDL1 (R&D Systems) [5] = biological target: T4, human PDL1 (R&D Systems); experiment: ELISA blocking of human B7-1 binding to PDL1; hB7-1 blockade
[6] = biological target: T5, cyno PDL1 (adsorbed in blockade assays) (cynomolgus monkey, UniProt G7PSE7 19-239); experiment: ELISA blocking of cyno B7-1 binding to PDL1; cyno B7-1 blockade
T5 sequence (G7PSE7 entry or part of it): as the sequence (G7PSE7 entry or part of it) above

[7] = biological target: T1, mouse PDL1-Fc (R & D Systems); experiment: ELISA; remark: listed apart in the source
[8] = biological target: T2, human PDL1-Fc (R & D Systems); experiment: ELISA; remark: listed apart in the source
[9] = biological target: T3, cynomolgus monkey (cyno) PDL1-Fc (Sino …); experiment: ELISA; remark: listed apart in the source
[10] = biological target: T5, cyno PDL1 (adsorbed in blockade assays); experiment: ELISA blocking of cyno PD-1 binding to PDL1; cyno PD1 blockade

T2 sequence (Q9NZQ7 19-239): as the sequence (G7PSE7 entry or part of it) above, with T33A, S34A, N62S, Q68R, R82Q, L173F, A185T, I192T, L215H counted along it
T1 sequence (Q9EP73 19-238): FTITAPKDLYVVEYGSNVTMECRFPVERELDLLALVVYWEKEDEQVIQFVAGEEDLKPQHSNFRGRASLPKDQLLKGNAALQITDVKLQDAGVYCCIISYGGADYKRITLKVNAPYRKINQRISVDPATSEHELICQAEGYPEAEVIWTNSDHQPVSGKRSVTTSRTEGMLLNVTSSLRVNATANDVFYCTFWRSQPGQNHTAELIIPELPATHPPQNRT

Kd [1]: 0.464 nM
Kd [2]: 0.272 nM
Kd [3]: 0.544 nM
IC50 (human PDL1 (R&D Systems) [4]): 0.7 nM
IC50 (human PDL1 (R&D Systems) [5]): 0.5 nM
IC50 [6]: 0.1 nM
B1: anti-PDL1 antibody C5H9v2 (antibody, V domains shown)
VH: EVQLLESGGGLVQPGGSLRLSCAASGFTFSSYAMSWVRQAPGKGLEWVSSIWRNGIVTVYADSVKGRFTISRDNSKNTLYLQMNSLRAEDTAVYYCAKWSAAFDYWGQGTLVTVSS
VL: DIQMTQSPSSLSASVGDRVTITCRASQSISSYLNWYQQKPGKAPKLLIYAASSLQSGVPSRFSGSGSGTDFTLTISSLQPEDFATYYCQQDNGYPSTFGGGTKVEIKR

Kd [7]: 0.666 nM
Kd [8]: 0.515 nM
Kd [9]: 0.399 nM
B2: C5H9 mIgG2a (antibody, V domains shown)
VH: B1 VH
VL: B1 VL with A50Y, S53T, G100Q

Kd [1]: 0.475 nM
Kd [2]: 0.286 nM
Kd [3]: 0.398 nM
B3: anti-PDL1 antibody C5H9 (antibody, V domains shown)
VH: B1 VH
VL: B1 VL with A50Y, S53T, G100Q

IC50 [10]: 7 nM
IC50 (human PDL1 (R&D Systems) [4]): 39.8 nM
IC50 (human PDL1 (R&D Systems) [5]): 11.7 nM
IC50 [6]: 9.6 nM
B4: anti-PDL1 activatable antibody PL07-2001-C5H9v2 (antibody)
VH: B1 VH
VL: QGQSGSGIALCPSHFCQLPQTGGGSSGGSGGSGGISSGLLSGRSDNHGGSDIQMTQSPSSLSASVGDRVTITCRASQSISSYLNWYQQKPGKAPKLLIYAASSLQSGVPSRFSGSGSGTDFTLTISSLQPEDFATYYCQQDNGYPSTFGGGTKVEIKR
